Experimental data reported in paper PMC9262625, “Structural and dynamic studies of DNA recognition by NF-κB p50 RHR homodimer using methyl NMR spectroscopy”.

Experiments:
Settings in all cases: protein: recombinant; tags: U-[2H,15N] or ILV methyl labeled; no tag stated; chain copies: 2
p50 RHR homodimer [1] = target: T1, p50 RHR homodimer (mouse (murine), UniProt P25799 39-363); test: NMR (13C methyl HMQC); 1:1; heterogeneous bound conformations; NMR: 20 mM Tris pH 6.8, 150 mM NaCl, 2 mM DTT, 300 K; native gel: 20 mM Tris pH 8.0, 10% glycerol, room temperature, 20 min
p50 RHR homodimer [2] = target: T1, p50 RHR homodimer; test: EMSA (native gel); 20 uM, 1:1; single band; NMR: 20 mM Tris pH 6.8, 150 mM NaCl, 2 mM DTT, 300 K; native gel: 20 mM Tris pH 8.0, 10% glycerol, room temperature, 20 min
p50 RHR homodimer [3] = target: T1, p50 RHR homodimer; test: NMR (13C methyl HMQC); 1:1; single bound conformation, shifts differ from MHC H2; NMR: 20 mM Tris pH 6.8, 150 mM NaCl, 2 mM DTT, 300 K; native gel: 20 mM Tris pH 8.0, 10% glycerol, room temperature, 20 min
p50 RHR homodimer [4] = target: T1, p50 RHR homodimer; test: NMR (13C methyl HMQC); 1:1; two conformations; NMR: 20 mM Tris pH 6.8, 150 mM NaCl, 2 mM DTT, 300 K; native gel: 20 mM Tris pH 8.0, 10% glycerol, room temperature, 20 min
p50 RHR homodimer [5] = target: T1, p50 RHR homodimer; test: NMR (13C methyl HMQC, CPMG); 1:1; single bound conformation; NMR: 20 mM Tris pH 6.8, 150 mM NaCl, 2 mM DTT, 300 K; native gel: 20 mM Tris pH 8.0, 10% glycerol, room temperature, 20 min
p50 RHR homodimer [6] = target: T1, p50 RHR homodimer; test: NMR (13C methyl HMQC); 1:1; split peaks, at least two bound conformers; NMR: 20 mM Tris pH 6.8, 150 mM NaCl, 2 mM DTT, 300 K; native gel: 20 mM Tris pH 8.0, 10% glycerol, room temperature, 20 min

T1 sequence (P25799 39-363): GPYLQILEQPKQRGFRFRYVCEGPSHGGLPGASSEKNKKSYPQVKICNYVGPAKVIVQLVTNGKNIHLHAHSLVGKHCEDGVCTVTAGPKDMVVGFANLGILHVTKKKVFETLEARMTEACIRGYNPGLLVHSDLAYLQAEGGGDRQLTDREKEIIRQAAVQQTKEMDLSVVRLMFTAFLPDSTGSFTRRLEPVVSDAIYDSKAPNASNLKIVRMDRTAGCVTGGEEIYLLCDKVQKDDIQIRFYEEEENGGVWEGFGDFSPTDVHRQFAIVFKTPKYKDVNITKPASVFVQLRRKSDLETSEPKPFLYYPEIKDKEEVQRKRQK

B1: IFN-κB (dsDNA)
DNA 1: GCTGGGAAATTCCAGC
DNA 2: GCTGGAATTTCCCAGC
p50 RHR homodimer [1]
  binding result: binds

B2: MHC H2 M2 (dsDNA)
DNA 1: GCTGGGGATTTCCCAGC
DNA 2: GCTGGGAAATCCCCAGC
p50 RHR homodimer [2]
  binding result: binds

B3: MHC H2 M1 (dsDNA)
DNA 1: GCTGGGAATTTCCCAGC
DNA 2: GCTGGGAAATTCCCAGC
p50 RHR homodimer [3]
  binding result: binds

B4: 4xG-10 (4G-10) (dsDNA)
DNA 1: GCTGGGGATCCCCAGC
DNA 2: GCTGGGGATCCCCAGC
p50 RHR homodimer [4]
  binding result: binds

B5: MHC H2 (dsDNA)
DNA 1: GCTGGGGATTCCCCAGC
DNA 2: GCTGGGGAATCCCCAGC
p50 RHR homodimer [5]
  binding result: binds

B6: κB proto (dsDNA)
DNA 1: GCTGGGAATTCCCAGC
DNA 2: GCTGGGAATTCCCAGC
p50 RHR homodimer [6]
  binding result: binds

B7: Ig-κB (dsDNA)
DNA 1: GCTGGGACTTTCCAGC
DNA 2: GCTGGAAAGTCCCAGC
p50 RHR homodimer [1]
  binding result: binds

B8: H2-κB (dsDNA)
DNA 1: GCTGGGAATCCCCAGC
DNA 2: GCTGGGGATTCCCAGC
p50 RHR homodimer [1]
  binding result: binds
